The target in data set [1] is Aca1 protein of Pseudomonas aeruginosa phage JBD30, full-length (1-79), wild type (Pseudomonas aeruginosa phage JBD30). The experiment in a line: SEC.
In the next data set the target is T1, Aca2 R30A (Pectobacterium carotovorum temperate …, UniProt H9C180 1-116, R30A).
T1 sequence: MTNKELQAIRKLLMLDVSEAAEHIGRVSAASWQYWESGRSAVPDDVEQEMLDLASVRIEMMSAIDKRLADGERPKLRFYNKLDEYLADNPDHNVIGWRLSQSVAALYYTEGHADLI
The experiment in a line: ITC. For orientation: ITC needs no label: the signal is the heat of the interaction.

The next data set concerns the target T2, Aca2 Y34A (Pectobacterium carotovorum temperate …, UniProt H9C180 1-116, Y34A).
T2 sequence: T1 sequence with A30R, Y34A
Briefly: ITC.

The next data set deals with T3, Aca2 R39A (Pectobacterium carotovorum temperate …, UniProt H9C180 1-116, R39A).
T3 sequence: T1 sequence with A30R, R39A
The experiment in a line: ITC.

In the next data set the target is T4, Aca1 (Pseudomonas aeruginosa phage JBD30, UniProt L7P845 1-79).
T4 sequence: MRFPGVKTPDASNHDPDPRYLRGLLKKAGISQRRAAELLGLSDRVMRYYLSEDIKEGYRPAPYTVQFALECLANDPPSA
Briefly: ITC.

In a further data set the target is T5, Aca1 R59A (Pseudomonas aeruginosa phage JBD30, UniProt L7P845 1-79, R59A).
T5 sequence: T4 sequence with R59A
Briefly: ITC.

In a further data set the target is T6, Aca1 R44A (Pseudomonas aeruginosa phage JBD30, UniProt L7P845 1-79, R44A).
T6 sequence: T4 sequence with R44A
The experiment in a line: ITC.

The target of another data set is T7, Aca1 R47A (Pseudomonas aeruginosa phage JBD30, UniProt L7P845 1-79, R47A).
T7 sequence: T4 sequence with R47A
Briefly: ITC.

The next data set concerns the target T8, Aca1 R22A/Q32A (Pseudomonas aeruginosa phage JBD30, UniProt L7P845 1-79, R22A;Q32A).
T8 sequence: T4 sequence with R22A, Q32A
Briefly: ITC.

The target in the next data set is T9, Aca1 Y48A (Pseudomonas aeruginosa phage JBD30, UniProt L7P845 1-79, Y48A).
T9 sequence: T4 sequence with Y48A
The experiment in a line: ITC.

In the next data set the target is T10, Aca1 S42G (Pseudomonas aeruginosa phage JBD30, UniProt L7P845 1-79, S42G).
T10 sequence: T4 sequence with S42G
The experiment in a line: ITC.

The target in a further data set is T11, Aca1 V45A (Pseudomonas aeruginosa phage JBD30, UniProt L7P845 1-79, V45A).
T11 sequence: T4 sequence with V45A
The experiment in a line: ITC.

Among the data in paper PMC8633003 are stoichiometry N, binding result and Kd values, retold here.

Where a chain is given by its changes, count along the chain named.

A word on the stoichiometry N: it is a count of units in the complex or per binding partner. “Aca1 protein of Pseudomonas aeruginosa phage JBD30, full-length (1-79), wild type (natural protein)” yielded a stoichiometry N in data set [1] of 2.

B1: 26-bp ZF40-IR1 blunt (dsDNA)
DNA 1: TGCTTGTTCGCGATTGCGAACATATA
DNA 2: TATATGTTCGCAATCGCGAACAAGCA
With B1, the binding result with Aca2 R30A, with Aca2 Y34A and with Aca2 R39A was “no binding” in each case.

B2: 21-bp IR1 (dsDNA)
DNA 1: AAGCGGCACACTGTGCCTATT
DNA 2: AATAGGCACAGTGTGCCGCTT
Broadly, the Kd is the equilibrium constant for the complex coming apart. Lower therefore signals a tighter complex. Molecule B2 registered a dissociation constant (Kd) with Aca1 of 53.2 nM.

B3: 21-bp IR2 (dsDNA)
DNA 1: ATTAGGCACAATGTGCCTAAT
DNA 2: ATTAGGCACATTGTGCCTAAT
Consider B3, for which the binding result with Aca1 R59A, in the data set with Aca1 R44A, in the data set with Aca1 R47A and with Aca1 R22A/Q32A was “no binding” throughout. Further, the Kd with Aca1 came to 74.1 nM; with Aca1 Y48A, 2860 nM; with Aca1 S42G, 59.2 nM; with Aca1 V45A it was 364 nM.

B4: 19-bp IR2 blunt (dsDNA)
DNA 1: TTAGGCACAATGTGCCTAA
DNA 2: TTAGGCACATTGTGCCTAA
B4 had a Kd in the data set with Aca1 of 741 nM.

B5: 23-bp IR2 (dsDNA)
DNA 1: AATTAGGCACAATGTGCCTAATC
DNA 2: GATTAGGCACATTGTGCCTAATT
Turning to B5, the Kd with Aca1 is 32.2 nM.
